From paper PMC4047408, “Assembly of the Respiratory Mucin MUC5B” (The Journal of Biological Chemistry, 2014)

Tests used:
[1] = target: recombinant MUC5B N terminus D1-D2-D′-D3 (NT5B), from 293-EBNA cells (human) (UniProt Q9HC84); assay: AUC; sedimentation velocity, 35,000 rpm, 20 °C; NT5B in 5 mM EGTA at pH 7.4 or pH 6, or 5 mM CaCl2 at pH 7.4
[2] = target: recombinant MUC5B N terminus D1-D2-D′-D3 (NT5B), from 293-EBNA cells (human) (UniProt Q9HC84); assay: SDS-PAGE, reduced and nonreduced; purified recombinant proteins from 293-EBNA conditioned medium; shows disulfide-linked dimers
[3] = target: recombinant MUC5B N terminus D1-D2-D′-D3 (NT5B), from 293-EBNA cells (human) (UniProt Q9HC84); assay: SEC-MALLS; Superose 6 10/300, 25 mM Hepes, 150 mM NaCl, with 5 mM CaCl2 or 5 mM EGTA at pH 7.4 or pH 6, room temperature, after overnight incubation at 4 °C
[4] = target: disulfide-linked NT5B dimer (human) (UniProt Q9HC84); assay: AUC; sedimentation velocity, 35,000 rpm, 20 °C; NT5B in 5 mM CaCl2 at pH 5
[5] = target: disulfide-linked NT5B dimer (human) (UniProt Q9HC84); assay: AUC; sedimentation velocity, 35,000 rpm, 20 °C; NT5B in 5 mM CaCl2 at pH 6; reversed by 10 mM EGTA and pH 7.4
[6] = target: disulfide-linked NT5B dimer (human) (UniProt Q9HC84); assay: SEC-MALLS; NT5B in 5 mM CaCl2 at pH 6, Superose 6 10/300, 25 mM Hepes, 150 mM NaCl; recovery in the dimer peak compared with 5 mM EGTA at pH 6
[7] = target: recombinant MUC5B N terminus D1-D2-D′-D3 (NT5B), from A549 cells (human) (UniProt Q9HC84); assay: SDS-PAGE (reduced and nonreduced) and Western blot with anti-His antibody; conditioned medium of transiently transfected A549 cells
[8] = target: the molecule itself; assay: SDS-PAGE, reduced and nonreduced; purified recombinant proteins from 293-EBNA conditioned medium; shows disulfide-linked dimers

Molecule “recombinant MUC5B N terminus D1-D2-D′-D3 (NT5B), from 293-EBNA cells (from UniProt Q9HC84 26-1304) (domain or fragment)” has a stoichiometry N [1] of 2, a stoichiometry N [2] of 2 and a stoichiometry N [3] of 2.

In the case of “disulfide-linked NT5B dimer (from UniProt Q9HC84 26-1304) (complex)”, the higher order multimeric species, percent of total [4] is reported as 44 % of total, the multimeric fraction (peak III), percent of total [5] is reported as 29 % of total and the reduction of protein recovered in the dimer peak (5 mM CaCl2 pH 6 against 5 mM EGTA pH 6) [6] is reported as 15%.

With “recombinant MUC5B N terminus D1-D2-D′-D3 (NT5B), from A549 cells (from UniProt Q9HC84 26-1304) (domain or fragment)” the stoichiometry N [7] was 2.

B1: recombinant MUC5B D2-D′-D3 domains (domain or fragment, human, UniProt Q9HC84 425-1304, looked up)
chain: CSVQGGAHISTYDEKLYDLHGDCSYVLSKKCADSSFTVLAELRKCGLTDNENCLKAVTLSLDGGDTAIRVQADGGVFLNSIYTQLPLSAANITLFTPSSFFIVVQTGLGLQLLVQLVPLMQVFVRLDPAHQGQMCGLCGNFNQNQADDFTALSGVVEATGAAFANTWKAQAACANARNSFEDPCSLSVENENYARHWCSRLTDPNSAFSRCHSIINPKPFHSNCMFDTCNCERSEDCLCAALSSYVHACAAKGVQLSDWRDGVCTKYMQNCPKSQRYAYVVDACQPTCRGLSEADVTCSVSFVPVDGCTCPAGTFLNDAGACVPAQECPCYAHGTVLAPGEVVHDEGAVCSCTGGKLSCLGASLQKSTGCAAPMVYLDCSNSSAGTPGAECLRSCHTLDVGCFSTHCVSGCVCPPGLVSDGSGGCIAEEDCPCVHNEATYKPGETIRVDCNTCTCRNRRWECSHRLCLGTCVAYGDGHFITFDGDRYSFEGSCEYILAQDYCGDNTTHGTFRIVTENIPCGTTGTTCSKAIKLFVESYELILQEGTFKAVARGPGGDPPYKIRYMGIFLVIETHGMAVSWDRKTSVFIRLHQDYKGRVCGLCGNFDDNAINDFATRSRSVVGDALEFGNSWKLSPSCPDALAPKDPCTANPFRKSWAQKQCSILHGPTFAACRSQVDSTKYYEACVNDACACDSGGDCECFCTAVAAYAQACHDAGLCVSWRTPDTCPLFCDFYNPHGGCEWHYQPCGAPCLKTCRNPSGHCLVDLPGLEGCYPKCPPSQPFFNEDQMKCVAQCGCYDKDGNYYDVGARVPTAENCQSCNCTPSGIQCAHSLEACTCTYEDRTYSYQDVIYNTTDGLGACLIAICGSNGTIIRKAVACPG
notes: MUC5B, human, D2-D′-D3 domains, residues 425-1304
For B1, the “stoichiometry N” value [8] was 2.

B2: recombinant MUC5B D3 domain (domain or fragment, human, UniProt Q9HC84 894-1304, looked up)
chain: TCVAYGDGHFITFDGDRYSFEGSCEYILAQDYCGDNTTHGTFRIVTENIPCGTTGTTCSKAIKLFVESYELILQEGTFKAVARGPGGDPPYKIRYMGIFLVIETHGMAVSWDRKTSVFIRLHQDYKGRVCGLCGNFDDNAINDFATRSRSVVGDALEFGNSWKLSPSCPDALAPKDPCTANPFRKSWAQKQCSILHGPTFAACRSQVDSTKYYEACVNDACACDSGGDCECFCTAVAAYAQACHDAGLCVSWRTPDTCPLFCDFYNPHGGCEWHYQPCGAPCLKTCRNPSGHCLVDLPGLEGCYPKCPPSQPFFNEDQMKCVAQCGCYDKDGNYYDVGARVPTAENCQSCNCTPSGIQCAHSLEACTCTYEDRTYSYQDVIYNTTDGLGACLIAICGSNGTIIRKAVACPG
notes: MUC5B, human, D3 domain, residues 894-1304; also called D3 protein
In the case of B2, the “stoichiometry N” value [8] is reported as 2.
